Legend:
[1] = target: T1, CD93 (human, wild type, C-terminal GFP tag, expressed in HEK293T) (human, UniProt Q9NPY3 22-652); assay: flow cytometry on transfected HEK293T cells, streptavidin-PE
T1 construct: On cells in flow cytometry; as non-reduced HEK293T lysate in far western blots; also called CD93 wild type (wt); cell surface expressed CD93; not shown: C-terminal green fluorescent protein (GFP) tag from vector pEGFP-N1
T1 sequence: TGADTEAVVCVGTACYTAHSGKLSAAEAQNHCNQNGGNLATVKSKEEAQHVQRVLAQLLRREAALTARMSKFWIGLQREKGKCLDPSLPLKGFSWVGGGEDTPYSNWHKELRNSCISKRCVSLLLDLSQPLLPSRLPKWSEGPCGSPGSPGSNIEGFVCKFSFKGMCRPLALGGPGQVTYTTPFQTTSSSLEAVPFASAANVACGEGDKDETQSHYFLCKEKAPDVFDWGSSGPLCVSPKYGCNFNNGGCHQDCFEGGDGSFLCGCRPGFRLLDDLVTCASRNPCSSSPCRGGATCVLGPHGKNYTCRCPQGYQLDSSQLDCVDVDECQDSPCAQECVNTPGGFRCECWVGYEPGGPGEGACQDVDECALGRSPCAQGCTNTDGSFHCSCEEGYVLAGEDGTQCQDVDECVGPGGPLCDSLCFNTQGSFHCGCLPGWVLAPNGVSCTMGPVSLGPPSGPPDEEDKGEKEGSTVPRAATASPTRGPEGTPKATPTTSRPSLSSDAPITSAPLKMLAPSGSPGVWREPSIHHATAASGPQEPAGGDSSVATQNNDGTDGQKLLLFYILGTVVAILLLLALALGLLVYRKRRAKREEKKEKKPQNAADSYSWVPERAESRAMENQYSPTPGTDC
Text: (§1) The minimal CLEC14A binding fragment is highlighted in black. (B,C) HEK293T were transfected with truncation mutants. Lysates were far western blotted under reduced conditions with CLEC14A extracellular domain fused to an Fc tag (CLEC14A-ECD-Fc) and western blotted by use of His tag antibodies. (B) The smallest binding fragment was identified as MMRN2⁴⁸⁷⁻⁸²⁰, MMRN2^FL fails to bind CLEC14A-ECD-Fc. (C) The smallest MMRN2 fragment binding CLEC14A is MMRN2⁵³⁰⁻⁶²⁴. (D) MMRN2⁴⁹⁵⁻⁶⁷⁴ and MMRN2⁴⁹⁵⁻⁶⁰³ bind to streptavidin under reducing conditions after biotinylation. (E) Flow cytometry histograms of HEK293T transfected with GFP tagged CTLD group 14 family members and stained with biotinylated MMRN2⁴⁹⁵⁻⁶⁷⁴ (grey line), confirming binding to CLEC14A and CD93 but not thrombomodulin. Streptavidin-PE was used as a control for background binding (grey shaded).
(§2) The human MMRN2⁴⁹⁵⁻⁶⁷⁴ fragment along with the non-CLEC14A binding fragment MMRN2⁴⁹⁵⁻⁶⁰³ was expressed in E. coil with a His tag for purification and a BirA tag for specific biotinylation (17). Biotinylated proteins could bind to streptavidin in western blots (FIG. 2D) and MMRN2⁴⁹⁵⁻⁶⁷⁴ could bind to cell surface expressed CLEC14A and CD93 but not thrombomodulin detected by flow cytometry. This confirmed the CLEC14A and CD93 interactions likely occur in the same region of MMRN2 (FIG. 2E).
(§3) HUVEC or transfected HEK293T cells were detached from tissue culture plates using cell dissociation buffer or scraped and 5×10⁵ cells were stained with 20 ug/mL of antibody of interest or 20 μg/mL of recombinant protein. In blocking experiments, hCLEC14A-ECD-Fc was incubated with 2× molar excess of antibody or recombinant protein on ice for 1 hour. Flow cytometry buffer (PBS with 0.2% (w/v) BSA and 0.02% (w/v) sodium azide) was used for all wash and incubation steps. Samples were analysed on a FACSCalibur machine (BD Biosciences). […] Isotype control staining or human Fc alone was used as background fluorescence and this was subtracted from the geometric mean fluorescence intensity of each sample.

[2] = target: T2, CLEC14A (human, wild type, C-terminal GFP tag, expressed in HEK293T) (human, UniProt Q86T13 22-490); assay: as above
T2 construct: On cells in flow cytometry; as non-reduced HEK293T lysate in far western blots; also called CLEC14A wt; cell surface expressed CLEC14A; not shown: C-terminal green fluorescent protein (GFP) tag from vector pEGFP-N1
T2 sequence: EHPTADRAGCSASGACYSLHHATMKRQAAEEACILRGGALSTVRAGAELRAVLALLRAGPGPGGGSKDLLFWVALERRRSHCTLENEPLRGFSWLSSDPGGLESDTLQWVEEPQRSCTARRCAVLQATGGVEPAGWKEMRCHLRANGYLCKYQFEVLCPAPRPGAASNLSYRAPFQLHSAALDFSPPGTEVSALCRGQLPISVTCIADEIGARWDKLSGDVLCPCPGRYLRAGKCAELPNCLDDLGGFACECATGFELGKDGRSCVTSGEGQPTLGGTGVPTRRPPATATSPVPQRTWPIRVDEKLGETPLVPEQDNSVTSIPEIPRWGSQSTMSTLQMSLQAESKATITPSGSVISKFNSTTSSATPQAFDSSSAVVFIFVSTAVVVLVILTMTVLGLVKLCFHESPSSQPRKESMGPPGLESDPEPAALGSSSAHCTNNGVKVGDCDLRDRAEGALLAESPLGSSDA
Text: as §1, §2, §3

[3] = target: T3, CD93^C104S (GFP tag, expressed in HEK293T) (human, UniProt Q9NPY3 22-652); assay: flow cytometry on transfected HEK293T cells
T3 construct: not shown: C-terminal GFP tag from vector pEGFP-N1
T3 sequence: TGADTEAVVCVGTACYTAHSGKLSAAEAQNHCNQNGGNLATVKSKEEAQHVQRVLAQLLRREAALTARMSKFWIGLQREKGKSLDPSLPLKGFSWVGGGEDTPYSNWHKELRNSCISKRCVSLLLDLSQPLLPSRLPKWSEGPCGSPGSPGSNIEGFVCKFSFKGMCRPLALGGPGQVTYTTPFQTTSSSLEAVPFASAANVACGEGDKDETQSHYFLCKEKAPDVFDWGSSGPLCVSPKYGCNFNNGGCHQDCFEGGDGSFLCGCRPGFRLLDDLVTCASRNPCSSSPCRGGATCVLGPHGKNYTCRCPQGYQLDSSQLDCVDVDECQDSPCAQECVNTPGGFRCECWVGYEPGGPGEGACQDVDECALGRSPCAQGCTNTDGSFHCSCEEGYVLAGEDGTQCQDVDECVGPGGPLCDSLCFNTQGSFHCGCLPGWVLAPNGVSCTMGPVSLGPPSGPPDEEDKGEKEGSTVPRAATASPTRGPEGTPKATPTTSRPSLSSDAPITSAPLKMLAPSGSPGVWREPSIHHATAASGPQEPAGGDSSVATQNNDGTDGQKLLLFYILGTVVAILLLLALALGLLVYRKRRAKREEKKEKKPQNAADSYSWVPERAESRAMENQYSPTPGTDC

binding result [1]: binds
binding result [2]: binds
binding result [3]: no binding (tested: 20 µg/mL)
B1: biotinylated MMRN2^495-674 (human, expressed in E. coli with a His tag and a BirA tag) (ligand)
chain: QKLYLDLDVIREGQRDATRALEETQVSLDERRQLDGSSLQALQNAVDAVSLAVDAHKAEGERARAATSRLRSQVQALDDEVGALKAAAAEARHEVRQLHSAFAALLEDALRHEAVLAALFGEEVLEEMSEQTPGPLPLSYEQIRVALQDAASGLQEQALGWDELAARVTALEQASEPPRP
modifications: biotin on the BirA tag
notes: Used for staining of transfected HEK293T cells in flow cytometry, detected with streptavidin-PE; not shown: BirA tag and His tag (vector pET23a)
